Test results: patent US20240034790A1 (INNOBATION BIO, published 2024)

Assays:
[1] = target: T1, CD47 on breast cancer cell line MCF-7 (UniProt Q08722 19-323, limits assumed); experiment: flow cytometry on MCF-7 cells, secondary antibody alone (background control)
T1 construct: whole, on cells; Endogenous CD47 of MCF-7 cells; also called CD47-expressing tumor cells (MCF-7); CD47-expressing cells

[2] = target: T2, CD47 protein (Acrobiosystems, cat#CD7-HA2E9) (UniProt Q08722 19-139); experiment: ELISA, CD47 protein coated 100 ng/well, 3 ul hybridoma culture solution, anti-mIgG-HRP
T2 construct: Bought recombinant protein, used as immunogen and as ELISA coating (100 ng/well); also called CD47 peptide; CD47 antigen
Method: 3 μl of hybridoma cell culture solution of each clone for producing 7C7, 5H4, 5A4, 4E12, 3H3, 3A5, or 1E7 antibody was treated in each well, and then reacted at room temperature for 2 hours, and then washed 3 times with 1× PBST. Secondary antibody ([…], 1:10,000) was treated and reacted at room temperature for 30 minutes, washed 3 times with 1× PBST, and then treated with TMB for color development and reacted at room temperature for 5 minutes. Finally, the reaction was terminated by treatment with a stop solution of 1N H₂SO₄, and then the absorbance was measured at 450 nm.

[3] = target: T1, CD47 on breast cancer cell line MCF-7; experiment: flow cytometry on MCF-7 cells, 1 ug antibody, PE anti-mouse IgG
Method: First, 1×10⁷ of breast cancer cell line MCF-7 expressing CD47 and 1 μg of 7C7, 5H4, […], 3H3, 3A5, and 1E7 antibody were reacted for 30 minutes, respectively, and then stained on surface with a secondary antibody. After staining, it was measured by flow cytometry.
As a positive control, CD47 antibody (Biolegend PE anti-human CD47, cat# 323108, 5 μl) was used, and as a secondary antibody, PE-conjugated anti-mouse IgG antibody (PE-conjugated goat anti-mouse IgG; Biolegend Inc., cat# 405307, USA, 5 μl) was used.

T1 sequence (Q08722 19-323 limits assumed): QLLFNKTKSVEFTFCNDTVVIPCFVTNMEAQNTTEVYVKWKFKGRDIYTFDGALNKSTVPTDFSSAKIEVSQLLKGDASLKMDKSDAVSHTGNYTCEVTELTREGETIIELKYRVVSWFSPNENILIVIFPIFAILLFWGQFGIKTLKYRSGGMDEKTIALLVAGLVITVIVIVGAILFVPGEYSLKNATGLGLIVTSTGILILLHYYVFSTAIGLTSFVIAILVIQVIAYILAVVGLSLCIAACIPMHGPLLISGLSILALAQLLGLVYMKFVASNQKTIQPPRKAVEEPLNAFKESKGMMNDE
T2 sequence (Q08722 19-139 limits assumed): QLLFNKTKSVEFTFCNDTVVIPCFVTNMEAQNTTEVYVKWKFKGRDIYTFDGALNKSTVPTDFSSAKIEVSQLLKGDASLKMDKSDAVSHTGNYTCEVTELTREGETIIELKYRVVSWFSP

Row | Mean [1] | Median [1] | OD450 measurements [2] | Mean [3] | Median [3] | Molecule
1 | 80 | 73.9 |  |  |  | PE-conjugated goat anti-mouse IgG (Biolegend Inc., cat# 405307) (antibody)
2 |  |  | 1.98 OD450 | 6820 | 6110 | 7C7 antibody (antibody, V domains shown, Monoclonal antibody from a hybridoma (mouse myeloma fusion), detected with anti-mouse IgG; In the ELISA hybridoma culture solution was used) VH: EVQLQQSGPELVKPGASVRMSCKASGYTFTSYVMHWVKQKPGQGLEWIGYINPYNDGTKYNEKFKGKSTLTSDKSSSTAYMELSSLTSEDSAVYCCARGRNRYDSWFAYWGQGTLVTVSA VL: DIQMTQTTSSLSASLGDRVTISCRASQDISNYLNWYQQKPDGTVKLLIYYTSRLHSGVPSRFSGSGSGTDYSLTISNLEQEDIATYFCQQGNTLPWTFGGGTKLEIK
3 |  |  | 1.93 OD450 | 16000 | 14700 | 5A4 antibody (antibody, V domains shown, Hybridoma monoclonal antibody detected with anti-mouse IgG) VH: QVQLQQPGPELVRPGASVKMSCKASGYTFTNYWIHWVKQRPGQGLEWIGMIDPSNSATRLNQKFKDKATLNVDKSSNTAYMQLSSLTSEDSAVYYCARGGFAFDSWGQGTTLTVSS VL: DVLMTQTPLSLPVSLGDQASISCRSSQSLVHSNGNTYLHWYLQKPGQSPKLLIYKVSNRFSGVPDRFSGSGSGTDFTLKISRVEAEDLGVYFCSQSTHVPWTFGGGTKLEIK
4 |  |  | 2.14 OD450 | 16100 | 14900 | 1E7 antibody (antibody, V domains shown, Hybridoma monoclonal antibody detected with anti-mouse IgG) VH: EVQLQQSGPELIKPGASVKMSCKASGYIFTSYVVYWVKQKPGQGLEWIGYINPYNDGTKYNEKFKGKATLTSYKSSSTAYMELSSLTSADSAVYYCARGGFTTDYWGQGTTLTVSS VL: DVLMTQTPLSLPVSLGDQASISCRSSQSLVHSNGNTYLHWYLQKPGQSPKLLIYKVSNRFSGVPDRFSGSGSGTDFTLKISRVEAEDLGVYFCSQSTHVPYTFGGGTKLEIK
5 |  |  | 2.15 OD450 | 6030 | 5380 | 4E12 antibody (antibody, V domains shown, Hybridoma monoclonal antibody detected with anti-mouse IgG) VH: QIQFAQSGPELKKSGETVKISCRASGYTFTNYGMNWVKQAPGKGLKWMGWINTYTGEPTYADDFKGRFAFSLETSASTAYLQINNLKNEDMATYFCARGGGRGAMDYWGQGTTLTVSS VL: DVLMTQTPLSLPVSLGDQASISCRSSQSIVHSNGNTYLDWYLQKPGQSPKLLIYKVSKRFSGVPDRFSGSGSGTDFTLKISRVEAEDLGVYYCFQGSHVPFTFGSGTKLEIK
6 |  |  | 1.91 OD450 | 15500 | 14300 | 5H4 antibody (antibody, V domains shown, Hybridoma monoclonal antibody detected with anti-mouse IgG) VH: QVQLQQPGAELVKPGTSVKMSCKASGYTFTNYWMHWVKQRPGQVLEWIGVIDPSDSYTSYNQKFKGKATLTVDTSSTTAYMQLSSLTSEDSAVYYCTRGGKRAMDYWGQGTSVTVSS VL: DVLMTQTPLSLPVSLGDQASISCRSSQSLVHSNGNTYLHWYLQKPGQSPKLLIYKVSNRFSGVPDRFSGSGSGTDFTLKISRVEAEDLGVYFCSQSTHVPFTFGSGTKLEIK
7 |  |  | 2.01 OD450 | 15000 | 13900 | 3A5 antibody (antibody, V domains shown, Hybridoma monoclonal antibody detected with anti-mouse IgG) VH: EVQLQQPGAELVKPGASVKMSCKASGYTFTSYWMHWMNQRPGQGLEWIGVIDPSDSYTSYNQKFKGKATLTVDTSSSTAYMQLSSLTSEDSAVYYCARGGKRAMDYWGQGTSVTVSS VL: DVLMTQTPLSLPVSLGDQASISCRSSQSLVHSNGNTYLHWYLQKPGQSPKLLIYKVSNRFSGVPDRFSGSGSGTDFTLKISRVEAEDLGVYFCSQSTHVPFTFGSGTKLEIK
8 |  |  | 1.97 OD450 | 18000 | 16500 | 3H3 antibody (antibody, V domains shown, Hybridoma monoclonal antibody detected with anti-mouse IgG) VH: EVQLQQPGPELVRPGASVKMSCKASGYTFTNYWMHWVKQRPGQGLEWIGMIDPSNSETRLNQKFKDKATLNVDKSSNTAYMQLSSLTSEDSAVYSCARGGFAFDSWGQGTTLTVSS VL: DVLMTQTPLSLPVSLGDQASISCRSSQSLVHNNGNTYLHWYLQKPGQSPKLLIYKVSNRFSGVPDRFRGSGSGTDFTLKISRVEAEDLGVYFCSQSTHVPWTFGGGTKLEIK
